Positions of bridges follow the written chain, without caps; N, C: chain ends. No end group written: not given here.
Target: T1, soluble EGFR (amino acids 1-621) (UniProt P00533 25-645)
T1 construct: range 1-621; Amine-coupled to a CM-5 chip on flowcell 3; also called soluble ErbB1; ErbB-1
Experiment: BIAcore 3000, receptor amine-coupled to CM-5 chip, peptide injected
Method: Biosensor analyses were performed using a BIAcore™ 3000. A CM-5 (research grade) sensor chip was immobilized with soluble EGFR (amino acids 1-501), soluble EGFR (amino acids 1-621) and soluble ErbB2 (amino acids 1-509) on flowcells 2, 3 and 4, respectively. Immobilizations were performed using amine coupling chemistry in 10 mM Sodium Acetate at pH 4.2. Varying concentrations (1.25 μM, 2.5 μM, 5 μM and 10 μM) of peptides were injected (30 μl) over the sensor surfaces in HBS running buffer (10 mM HEPES, 3.4 mM EDTA, 0.15M NaCl, 0.005% Tween 20, pH 7.4) at a flow rate of 5 μl/min. The surfaces were then regenerated by injecting 10 μl of 10 mM NaOH at a flow rate of 20 μl/min. The resulting sensor curves were subtracted against the blank channel (Flowcell 1) to yield the specific response.

binding result: no binding (tested: up to 10 uM)
B1: Human NRG2 (1-32) (peptide)
peptide: GHARKCNETAKSYCVNGGVCYYIEGINQLSCK-OH
modifications: disulfide 14-20, 6-31; N-terminus assumed
SMILES: CC[C@H](C)[C@@H]1NC(=O)CNC(=O)[C@H](CCC(=O)O)NC(=O)[C@H]([C@@H](C)CC)NC(=O)[C@H](Cc2ccc(O)cc2)NC(=O)[C@H](Cc2ccc(O)cc2)NC(=O)[C@@H]2CSSC[C@H](NC(=O)[C@H](Cc3ccc(O)cc3)NC(=O)[C@H](CO)NC(=O)[C@H](CCCCN)NC(=O)[C@H](C)NC(=O)[C@H]([C@@H](C)O)NC(=O)[C@H](CCC(=O)O)NC(=O)[C@H](CC(N)=O)NC(=O)[C@@H](NC(=O)[C@H](CCCCN)NC(=O)[C@H](CCCNC(=N)N)NC(=O)[C@H](C)NC(=O)[C@H](Cc3c[nH]cn3)NC(=O)CN)CSSC[C@@H](C(=O)N[C@@H](CCCCN)C(=O)O)NC(=O)[C@H](CO)NC(=O)[C@H](CC(C)C)NC(=O)[C@H](CCC(N)=O)NC(=O)[C@H](CC(N)=O)NC1=O)C(=O)N[C@@H](C(C)C)C(=O)N[C@@H](CC(N)=O)C(=O)NCC(=O)NCC(=O)N[C@@H](C(C)C)C(=O)N2
notes: V8 digestion and mass spectrometry indicate C1-C4 and C2-C3 disulfide bridges; also called hNRG2 (1-32); hNRG2(1-32)

From patent US20090131308A1 (AGOS BIOTECH, published 2009)
